# Reference: patent publication US9029105B2, “Microorganism producing L-methionine precursor and method of producing L-methionine and organic acid from the L-methionine precursor” (CJ Cheiljedang Corporation, priority 2006, dated 2015)
# B1: Escherichia Coli K12 MetB: cystathionine gamma synthase derived from E. coli, cell extract enzyme solution (protein, UniProt P00935 1-386, looked up)
# Cystathionine gamma-synthase: MTRKQATIAVRSGLNDDEQYGCVVPPIHLSSTYNFTGFNEPRAHDYSRRGNPTRDVVQRALAELEGGAGAVLTNTGMSAIHLVTTVFLKPGDLLVAPHDCYGGSYRLFDSLAKRGCYRVLFVDQGDEQALRAALAEKPKLVLVESPSNPLLRVVDIAKICHLAREVGAVSVVDNTFLSPALQNPLALGADLVLHSCTKYLNGHSDVVAGVVIAKDPDVVTELAWWANNIGVTGGAFDSYLLLRGLRTLVPRMELAQRNAQAIVKYLQTQPLVKKLYHPSLPENQGHEIAARQQKGFGAMLSFELDGDEQTLRRFLGGLSLFTLAESLGGVESLISHAATMTHAGMAPEARAAAGISETLLRISTGIEDGEDLIADLENGFRAANKG
# B2: Pseudomonas aurogenosa MetZ: O-succinylhomoserine sulfhydrylase derived from Pseudomonas aeruginosa, cell extract enzyme solution (protein, UniProt P55218 1-403, looked up)
# O-succinylhomoserine …: MTQDWDAGRLDSDLEGAAFDTLAVRAGQRRTPEGEHGEALFTTSSYVFRTAADAAARFAGEVPGNVYSRYTNPTVRTFEERIAALEGAEQAVATASGMSAILALVMSLCSSGDHVLVSRSVFGSTISLFDKYFKRFGIQVDYPPLSDLAAWEAACKPNTKLFFVESPSNPLAELVDIAALAEIAHAKGALLAVDNCFCTPALQQPLKLGADVVIHSATKYIDGQGRGMGGVVAGRGEQMKEVVGFLRTAGPTLSPFNAWLFLKGLETLRIRMQAHSASALALAEWLERQPGIERVYYAGLPSHPQHELARRQQSGFGAVVSFDVKGGRDAAWRFIDATRMVSITTNLGDTKTTIAHPATTSHGRLSPEDRARAGIGDSLIRVAVGLEDLDDLKADMARGLAAL
# modifications: cell extract
# notes: O-succinylhomoserine sulfhydrylase derived from Pseudomonas aeruginosa, cell extract enzyme solution
# B3: Leptospira meyeri MetY: O-acetylhomoserine sulfhydrylase derived from Leptospira meyeri (protein, UniProt P94890 1-442, looked up)
# O-acetyl-L-homoserine …: MVGPSGESMPRNFKPETIALHGGQEPDPTTTSRAVPLYQTTSYVFKDTDHAARLFGLQEFGNIYTRLMNPTTDVLEKRVAALEGGVAALATASGQSAEMLALLNIVEAGQEIVASSSLYGGTYNLLHYTFPKLGIKVHFVDQSDPENFRKASNDKTRAFYAETLGNPKLDTLDIAAVSKVAKEVGVPLVIDNTMPSPYLVNPLKHGADIVVHSLTKFLGGHGTSIGGIIIDGGSFNWGNGKFKNFTEPDPSYHGLKFWEVFGKFEPFGGVNIAFILKARVQGLRDLGPAISPFNAWQILQGVETLPLRMERHSGNALKVAEFLQKHPKIEWVNYPGLSTDKNYATAKKYHERGLFGAIVGFEIKGGVEKAKKFIDGLELFSLLANIGDAKSLAIHPASTTHQQLTGPEQISAGVTPGFVRLSVGLENIDDILVDLEEALKNI
# Key:
# Assay type in all cases: biochemical
# [1] = HPLC of final methionine and succinic acid after one-hour reaction with O-succinylhomoserine; conditions: from O-succinylhomoserine
# Method: (§1) First, O-succinylhomoserine (Sigma, USA) was dissolved in 0.1 M potassium phosphate buffer (pH 7.5) with the concentration of 3 mM. Pyridoxal 5′-phosphate (Sigma, USA) used as a coenzyme was added into the reaction solution with the final concentration of 10 μM. Methylmercaptan (Methylmercaptan, Tokyo Kasei Organic Chemicals, Japan) used as another substrate was added into the reaction solution with the final concentration of 2 mM. 1 ml of the reaction solution was placed in 37° C., to which 10 μL of each enzyme solution (protein conc.: 5 mg/ml) was added. 100 μL of the reaction solution was collected every 5-10 minutes and added into 900 μL of 4 mg/ml DTNB (Sigma, USA) solution. OD415 was measured to confirm the on-going of the reaction.
# Upon completion of one-hour reaction, HPLC was performed to confirm the final productions of methionine and succinic acid.
# [2] = Feed-back inhibition of converting enzyme by methionine, OAHS as substrate; conditions: presence of methionine
# Method: (§2) Experiment was performed with O-acetylhomoserine by the same manner as described in Example <3-20>. O-acetylhomoserine was purified from the supernatant of fermented solution. The same reaction solutions and enzyme solutions as used for the experiment with O-succinylhomoserine were used for the reaction. […] Upon completion of one-hour reaction, HPLC was performed to confirm the final productions of methionine and […].
# Feed-back inhibition in the presence or absence of methionine was identified by the same manner as described in Examples <3-20> and <3-21>. The reaction solutions were prepared by the same manner above and the same reaction was performed by adding or not adding 5 g/L of methionine in the each reaction solution. The reaction speed in the reaction solution without methionine was regarded as 100%, based on which the remaining activity in the presence of methionine was calculated as %.
# [3] = Conversion reaction of O-acetylhomoserine with methylmercaptan by enzyme solutions (DTNB, OD415); conditions: OAHS as a substrate
# Method: as §1
# DTNB was reacted with SH group of methylmercaptan remaining in the reaction solution and thus synthesized a yellow substance. Thus, whether the reaction was going on or not was checked by observing the disappearance of yellow color of the reaction solution resulted from the conversion reaction of methylmercaptan into methionine.
# Experiment was performed with O-acetylhomoserine by the same manner as described in Example <3-20>. O-acetylhomoserine was purified from the supernatant of fermented solution. The same reaction solutions and enzyme solutions as used for the experiment with O-succinylhomoserine were used for the reaction. […]
# [4] = HPLC of final methionine and acetic acid after one-hour reaction with O-acetylhomoserine; conditions: from O-acetylhomoserine
# Method: as §1, §2
Molecule,amount of Methionine [1],amount of Succinic acid [1],"inhibition of enzyme activity by methionine, in words [2]","enzyme activity with O-acetylhomoserine (FIG. 6), in words [3]",amount of Acetic acid [4],amount of Methionine [4]
B1,0.14 g/L,0.1 g/L,,,,
B2,0.22 g/L,0.17 g/L,,,,
B3,,,inhibited by methionine,high enzyme activities,0.05 g/L,0.15 g/L
